Test results taken from publication PMC7641730, “Structural basis of DNA replication origin recognition by human Orc6 protein binding with DNA”.

T1: HsOrc6-M (Homo sapiens, UniProt Q9Y5N6 95-187)
T1 sequence: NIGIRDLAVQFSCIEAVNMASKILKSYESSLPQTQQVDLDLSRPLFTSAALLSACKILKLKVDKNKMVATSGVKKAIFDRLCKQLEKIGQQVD

T2: HsOrc6-DBD (Homo sapiens, UniProt Q9Y5N6 95-207)
T2 sequence: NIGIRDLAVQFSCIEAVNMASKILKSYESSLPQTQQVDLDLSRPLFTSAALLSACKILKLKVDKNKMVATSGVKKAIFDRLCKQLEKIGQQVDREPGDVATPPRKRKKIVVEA

T3: HsOrc6 full length (Homo sapiens, UniProt Q9Y5N6 1-252)
T3 sequence: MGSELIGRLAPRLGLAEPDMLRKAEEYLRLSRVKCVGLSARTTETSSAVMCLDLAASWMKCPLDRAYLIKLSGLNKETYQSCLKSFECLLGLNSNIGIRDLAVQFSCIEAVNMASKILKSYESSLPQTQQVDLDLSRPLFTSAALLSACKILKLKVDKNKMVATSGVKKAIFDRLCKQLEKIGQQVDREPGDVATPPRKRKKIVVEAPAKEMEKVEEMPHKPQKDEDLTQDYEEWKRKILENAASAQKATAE

B1: 10-bp AT-rich DNA (dsDNA)
DNA 1: TTTAAAAAGT
DNA 2: ACTTTTTAAA
B2: 17-bp AT-rich DNA (dsDNA)
DNA 1: GGCCCTTTTTTTTCTAG
DNA 2: CTAGAAAAAAAAGGGCC

Columns and labels:
[1] = target: T1, HsOrc6-M; test: NMR (2D NOESY of DNA); smaller shifts than with DBD; NMR: 50 mM sodium phosphate pH 6.5, 100 mM NaCl, 2 mM DTT, 298 K; ITC: 50 mM sodium phosphate pH 6.5, 100 mM NaCl, 25 C; EMSA: 25 mM Tris pH 8.0, 60 mM KCl, 5 mM MgCl2, 0.4 mM EDTA, 0.4 mM EGTA, 0.1% NP-40, 10% glycerol, 0.12 mg/ml BSA, room temperature 30 min; settings: protein: recombinant; tags: none (N-terminal His-tag cleaved); blunt
[2] = target: T2, HsOrc6-DBD; test: NMR titration (1H,15N-HSQC); range over residues: K169 47.1±1.4, A170 57.7±1.1, R200 9.92±2.91, I203 11.3±1.5; NMR: 50 mM sodium phosphate pH 6.5, 100 mM NaCl, 2 mM DTT, 298 K; ITC: 50 mM sodium phosphate pH 6.5, 100 mM NaCl, 25 C; EMSA: 25 mM Tris pH 8.0, 60 mM KCl, 5 mM MgCl2, 0.4 mM EDTA, 0.4 mM EGTA, 0.1% NP-40, 10% glycerol, 0.12 mg/ml BSA, room temperature 30 min; settings: protein: recombinant; tags: none (N-terminal His-tag cleaved); blunt
[3] = target: T3, HsOrc6 full length; test: NMR titration (1H,15N-HSQC); range over residues; NMR: 50 mM sodium phosphate pH 6.5, 100 mM NaCl, 2 mM DTT, 298 K; ITC: 50 mM sodium phosphate pH 6.5, 100 mM NaCl, 25 C; EMSA: 25 mM Tris pH 8.0, 60 mM KCl, 5 mM MgCl2, 0.4 mM EDTA, 0.4 mM EGTA, 0.1% NP-40, 10% glycerol, 0.12 mg/ml BSA, room temperature 30 min; settings: protein: recombinant; tags: none (N-terminal His-tag cleaved with 3C); blunt

Row | Binder | binding result [1] | Kd [2] [µM] | Kd [3] [µM]
1 | B1 | binds | – | –
2 | B2 | – | 23.9 | 44.5
